This passage reports IC50 and Kd results from the Immune Epitope Database (IEDB).

The target in assay [1] is HLA-A*01:01. The assay is described as follows: IEDB peptide-MHC binding, purified MHC/competitive/radioactivity; ≥ and ≤ were set here for values at or beyond the usual limits of such assays. To be noted: source organism: Homo sapiens.
The target in assay [2] is HLA-A*01:01. In words: IEDB peptide-MHC binding, purified MHC/competitive/radioactivity; filed as Kd, often an IC50 or EC50 that approximates it; ≥ and ≤ were set here for values at or beyond the usual limits of such assays. To be noted: source organism: Homo sapiens.

In general, IC50 refers to the concentration needed to halve the response being measured. Consider FATCLGLSY, for which the IC50 with HLA-A*01:01 [1] turned out to be 0.658 µM.

By Kd is commonly meant the concentration at which binding is half-saturated. For IFATCLGLSY, in the assay with HLA-A*01:01 [2], the Kd is 12.5 µM.

Regarding KMVELVHFLL, the Kd with HLA-A*01:01 [2] was no less than 36 µM.

Regarding KVAELVHFL, the dissociation constant Kd with HLA-A*01:01 [2] is no less than 36 µM.

For the sequence LGSVVGNWQY, in the assay with HLA-A*01:01 [2], the Kd came out at 12.5 µM.

For LLGDNQIMPK, the Kd with HLA-A*01:01 [2] was no less than 36 µM.

For LVFGIELMEV, the Kd in the assay with HLA-A*01:01 [2] was no less than 36 µM.

For LVTCLGLSY, in the assay with HLA-A*01:01 [2], the dissociation constant Kd came to 2.98 µM.

Turning to LYIFATCLGL, the dissociation constant Kd with HLA-A*01:01 [2] was no less than 36 µM.

Turning to NYPLWSQSY, the Kd in the assay with HLA-A*01:01 [2] is no less than 36 µM.
